Measurements: patent publication US20250002907A1

Legend:
[1] = target: Rpk4 monomer (with Avi and hexa-histidine tags) (SARS-CoV-2 (Wuhan-Hu-1))
[2] = target: Rpk9 monomer (with Avi and hexa-histidine tags) (SARS-CoV-2 (Wuhan-Hu-1))

CR3022 IgG (antibody)
fold decrease of affinity against wild-type RBD [1]: < 3.5 fold
fold decrease of affinity against wild-type RBD [2]: < 3.5 fold
